From patent US20120237528A1

Target: Innovin, lyophilized recombinant human tissue factor combined with phospholipids (human) (UniProt P13726)
Experiment: cell-based or functional assay

Chain of Innovin, lyophilized recombinant human tissue factor combined with phospholipids (human) (P13726 33-295 limits assumed): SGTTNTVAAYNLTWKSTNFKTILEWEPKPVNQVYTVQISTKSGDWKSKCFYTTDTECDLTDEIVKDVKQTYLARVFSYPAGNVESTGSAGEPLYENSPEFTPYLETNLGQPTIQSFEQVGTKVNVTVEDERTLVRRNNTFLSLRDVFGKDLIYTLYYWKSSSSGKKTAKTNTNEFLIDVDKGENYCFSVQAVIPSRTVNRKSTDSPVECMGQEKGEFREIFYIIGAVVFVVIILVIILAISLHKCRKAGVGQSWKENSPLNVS

T½ Max (seconds), coagulation of human plasma: > 900 s
coagulation time: > 1800 s
Substance: CNTO 860, humanized form of the antibody 5G9, human IgG1/Kappa
